Substitutions are numbered along the chain they refer to.
Experiments:
MotA E153A [1] = molecular target: T1, MotA E153A (Enterobacteria phage T4, UniProt P22915 1-211, E153A); assay: EMSA; no difference; data not shown; EMSA: 0.01 pmol 32P-DNA, 1.7 pmol MotA, native 12% PAGE in 1x TBE at 4 C, other conditions as in ref 14; SPR: biotin-DNA on neutravidin chip, buffer as in ref 2
T1 sequence: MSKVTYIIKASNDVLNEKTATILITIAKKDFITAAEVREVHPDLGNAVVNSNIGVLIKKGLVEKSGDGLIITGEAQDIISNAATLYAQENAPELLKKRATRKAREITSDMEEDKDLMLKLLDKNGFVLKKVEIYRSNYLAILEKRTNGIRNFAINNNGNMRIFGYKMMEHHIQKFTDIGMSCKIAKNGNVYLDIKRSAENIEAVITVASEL

MotA Y134A = molecular target: T2, MotA Y134A (Enterobacteria phage T4, UniProt P22915 1-211, Y134A); assay: EMSA; similar to wt; EMSA: 0.01 pmol 32P-DNA, 1.7 pmol MotA, native 12% PAGE in 1x TBE at 4 C, other conditions as in ref 14; SPR: biotin-DNA on neutravidin chip, buffer as in ref 2
T2 sequence: T1 sequence with Y134A, A153E

MotA E153A [2] = molecular target: T1, MotA E153A; assay: EMSA; slightly tighter than wt; EMSA: 0.01 pmol 32P-DNA, 1.7 pmol MotA, native 12% PAGE in 1x TBE at 4 C, other conditions as in ref 14; SPR: biotin-DNA on neutravidin chip, buffer as in ref 2

B1: EMSA 19-mer GHMe/unmod (dsDNA)
DNA 1: AATTATTTGCTTTAGATTA
DNA 2: TAATCTAAAGCAAATAATT
modifications: beta-D-glucosyl-5-hydroxymethyl-dC at top C10
MotA E153A [1]
  binding result: binds

B2: EMSA 19-mer unmodified (dsDNA)
DNA 1: AATTATTTGCTTTAGATTA
DNA 2: TAATCTAAAGCAAATAATT
MotA Y134A
  binding result: binds
MotA E153A [2]
  binding result: binds

— publication PMC6007404 (Nucleic Acids Research, 2018)
